This is an account of results in doi:10.1101/2025.09.14.676173.

The target of experiment [1] is S2P.BA5.VI-1147 A570C/N967C (I1) (SARS CoV-2 omicron BA.5). Briefly: cross-linking.
Experiment [2] concerns the target S2P.BA5.VI-1147 D571C/N967C (D17) (SARS CoV-2 omicron BA.5). Briefly: cross-linking.

Broadly, the stoichiometry N is the number of molecules, sites or subunits per partner or assembly.

With “S2P.BA5.VI-1147 A570C/N967C (I1) (domain or fragment)”, the stoichiometry N in experiment [1] was found to be 3.
In experiment [2], “S2P.BA5.VI-1147 D571C/N967C (D17) (domain or fragment)” returned a stoichiometry N of 3.
